These results are taken from US20230416365A1 (Hoffmann-La Roche, published 2023).

Assay [1] addresses T1, human CEA (CEACAM5), form in the assay not stated (human, UniProt P06731 35-685, limits assumed).
T1 sequence: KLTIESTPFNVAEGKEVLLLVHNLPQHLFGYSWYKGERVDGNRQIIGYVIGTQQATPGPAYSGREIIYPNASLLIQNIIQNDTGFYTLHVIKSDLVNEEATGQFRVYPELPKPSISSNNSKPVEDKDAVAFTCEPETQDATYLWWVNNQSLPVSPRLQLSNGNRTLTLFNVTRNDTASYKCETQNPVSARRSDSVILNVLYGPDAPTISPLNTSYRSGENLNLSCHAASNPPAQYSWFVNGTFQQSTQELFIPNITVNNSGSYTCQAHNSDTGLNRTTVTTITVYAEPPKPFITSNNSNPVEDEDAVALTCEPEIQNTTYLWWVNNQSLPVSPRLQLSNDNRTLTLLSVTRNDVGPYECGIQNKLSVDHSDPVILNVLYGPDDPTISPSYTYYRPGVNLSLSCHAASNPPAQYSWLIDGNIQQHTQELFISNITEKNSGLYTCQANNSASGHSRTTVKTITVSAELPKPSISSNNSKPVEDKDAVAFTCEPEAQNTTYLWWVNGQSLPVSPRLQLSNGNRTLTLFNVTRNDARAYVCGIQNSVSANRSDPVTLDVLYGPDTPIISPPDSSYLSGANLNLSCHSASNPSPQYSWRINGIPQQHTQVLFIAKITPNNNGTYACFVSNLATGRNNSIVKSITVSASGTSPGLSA
As to the kind of experiment: SPR. In general terms: SPR reads the build-up and loss of mass on a sensor chip optically.

Assay [2] deals with T2, human CD28 on CHO cells (parental cell line CHO-k1 ATCC #CCL-61, modified to stably overexpress human CD28) (human, UniProt P10747 19-220).
T2 construct: also called hu CD28; CHO-hCD28
As to the kind of experiment: flow cytometry on CHO-k1 cells expressing human CD28, PE anti-human secondary antibody, MFI. Background: In flow cytometry, cells or beads pass a laser one at a time.

Assay [3] concerns the target T3, human HER3 on T-47D cells (human, UniProt P21860 20-1342).
T3 construct: also called ErbB3
As to the kind of experiment: flow cytometry on T-47D cells, PE anti-human secondary antibody, MFI.

Assay [4] concerns the target T2, human CD28 on CHO cells (parental cell …). The assay is described as follows: flow cytometry on CHO-k1 cells expressing human CD28, PE anti-human secondary antibody, MFI. The source holds these as a separate data set.

B1: murine CEA antibody A5B7 (parental) (antibody, V domains shown)
VH: EVKLVESGGGLVQPGGSLRLSCATSGFTFTDYYMNWVRQPPGKALEWLGFIGNKANGYTTEYSASVKGRFTISRDKSQSILYLQMNTLRAEDSATYYCTRDRGLRFYFDYWGQGTTLTVSS
VL: QTVLSQSPAILSASPGEKVTMTCRASSSVTYIHWYQQKPGSSPKSWIYATSNLASGVPARFSGSGSGTSYSLTISRVEAEDAATYYCQHWSSKPPTFGGGTKLEIK
notes: also called parental murine A5B7 antibody; parental chimeric antibody
B1: the Kd in assay [1] is approximately 0.8 nM.

B2: EpCAM (MT201)-CD28 (SA_Variant 15) 1+1 format (Molecule 14A) (bispecific antibody, human IgG1, kappa, L234A L235A)
heavy 1: not shown
light 1: QVQLVQSGAEVKKPGASVKVSCKASGYTFTSYYIHWVRQAPGQGLEWIGSIYPGNVQTNYNEKFKDRATLTVDTSISTAYMELSRLRSDDTAVYFCTRSHYGLDWNFDVWGQGTTVTVSSASVAAPSVFIFPPSDEQLKSGTASVVCLLNNFYPREAKVQWKVDNALQSGNSQESVTEQDSKDSTYSLSSTLTLSKADYEKHKVYACEVTHQGLSSPVTKSFNRGEC
heavy 2: not shown
light 2: ELQMTQSPSSLSASVGDRVTITCRTSQSISSYLNWYQQKPGQPPKLLIYWASTRESGVPDRFSGSGSGTDFTLTISSLQPEDSATYYCQQSYDIPYTFGQGTKLEIKRTVAAPSVFIFPPSDRKLKSGTASVVCLLNNFYPREAKVQWKVDNALQSGNSQESVTEQDSKDSTYSLSSTLTLSKADYEKHKVYACEVTHQGLSSPVTKSFNRGEC
notes: huIgG1 PG-LALA CrossFab; also called P1AE9051; EpCAM-CD28
B2: the “EC50 (read off the curve)” value in assay [2] is approximately 8 nM.

B3: HER3(lumretuzumab)-CD28 (SA_Variant 15) 1+1 format (Molecule 14B) (bispecific antibody, human IgG1, kappa, L234A L235A)
heavy 1: not shown
light 1: not shown
heavy 2: DIVMTQSPDSLAVSLGERATINCKSSQSVLNSGNQKNYLTWYQQKPGQPPKLLIYWASTRESGVPDRFSGSGSGTDFTLTISSLQAEDVAVYYCQSDYSYPYTFGQGTKLEIKSSASTKGPSVFPLAPSSKSTSGGTAALGCLVKDYFPEPVTVSWNSGALTSGVHTFPAVLQSSGLYSLSSVVTVPSSSLGTQTYICNVNHKPSNTKVDKKVEPKSCDKTHTCPPCPAPEAAGGPSVFLFPPKPKDTLMISRTPEVTCVVVDVSHEDPEVKFNWYVDGVEVHNAKTKPREEQYNSTYRVVSVLTVLHQDWLNGKEYKCKVSNKALGAPIEKTISKAKGQPREPQVCTLPPSRDELTKNQVSLSCAVKGFYPSDIAVEWESNGQPENNYKTTPPVLDSDGSFFLVSKLTVDKSRWQQGNVFSCSVMHEALHNHYTQKSLSLSP
light 2: QVQLVQSGAEVKKPGASVKVSCKASGYTFRSSYISWVRQAPGQGLEWMGWIYAGTGSPSYNQKLQGRVTMTTDTSTSTAYMELRSLRSDDTAVYYCARHRDYYSNSLTYWGQGTLVTVSSASVAAPSVFIFPPSDEQLKSGTASVVCLLNNFYPREAKVQWKVDNALQSGNSQESVTEQDSKDSTYSLSSTLTLSKADYEKHKVYACEVTHQGLSSPVTKSFNRGEC
notes: huIgG1 PG-LALA CrossFab; also called P1AF0151; HER3-CD28
For B3, in assay [3], the “EC50 (read off the curve)” value is approximately 1 nM. For the same molecule, in assay [4], the binding result is on record as “binds”.

B4: humanized CEA antibody A5H1EL1D (format in the assay not stated) (antibody, V domains shown)
VH: EVQLLESGGGLVQPGGSLRLSCAASGFTFTDYYMNWVRQAPGKGLEWLGFIGNKANAYTTEYSASVKGRFTISRDKSKNTLYLQMNSLRAEDTATYYCTRDRGLRFYFDYWGQGTTVTVSS
VL: EIVLTQSPATLSLSPGERATLSCRASSSVTYIHWYQQKPGQAPRSWIYATSNLASGIPARFSGSGSGTDFTLTISSLEPEDFAVYYCQHWSSKPPTFGQGTKLEIK
notes: heavy chain with VH variant 3-23A5-1E and Ckappa light chain with VL variant A5-L1D; also called huA5B7
For B4, the Kd in assay [1] was approximately 2.5 nM.

In general, Kd refers to the concentration at which binding is half-saturated. A higher Kd goes with lower affinity. By EC50 (read off the curve) is commonly meant the concentration giving half of the maximal effect.
